In publication PMC10290134, “Development of a one-shot dual aptamer-based fluorescence nanosensor for rapid, sensitive, and label-free detection of periostin” one finds Kd data, which are given here for four molecules.

First the molecules themselves.
T1: Periostin (UniProt Q15063 496-836)
T1 sequence: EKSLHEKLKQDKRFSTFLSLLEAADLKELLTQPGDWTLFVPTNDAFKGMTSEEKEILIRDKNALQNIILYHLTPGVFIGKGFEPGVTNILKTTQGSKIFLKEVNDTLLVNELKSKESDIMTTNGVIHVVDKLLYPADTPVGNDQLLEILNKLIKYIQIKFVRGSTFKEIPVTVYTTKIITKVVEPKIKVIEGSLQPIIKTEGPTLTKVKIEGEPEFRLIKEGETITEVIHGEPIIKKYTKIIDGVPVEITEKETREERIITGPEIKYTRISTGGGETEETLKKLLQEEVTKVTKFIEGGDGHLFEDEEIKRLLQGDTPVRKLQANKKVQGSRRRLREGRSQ

B1: PL2 (ssDNA)
DNA: CACCTAATACGACTCACTATAGCGGATCCGAAAGTCAACGCCAGATAAAAACAATTTGCCTTCCTCCGCCCCTGGCTCGAACAAGCTTGC
B2: PL5trunc (ssDNA)
DNA: TAATACGACTCACTATAGCGGATCCGATTCGAACCAGAATATTAGTCGCAAAATCTTGATG
B3: PL5 (ssDNA)
DNA: CACCTAATACGACTCACTATAGCGGATCCGATTCGAACCAGAATATTAGTCGCAAAATCTTGATGCAGTCACTGGCTCGAACAAGCTTGC

The data set addresses T1, Periostin. As to the kind of experiment: magnetic bead fluorescence assay; 5 mM Mg2+; 20 mM Tris-HCl pH 8.0, 100 mM NaCl, 5 mM KCl, 5 mM MgCl2, 0.05% Tween 20, 25 °C, 1 h; His-tagged periostin on His-tag magnetic beads. To be noted: protein: recombinant; tags: 6xHis (pET-28a); label: 5' Cy3.
On to B1, for which the Kd (in general, the equilibrium constant for the complex coming apart) came out at 45.7 nM. The same measure for B2: 37 nM; for TCAACGCCAGATAAAAACAATTTGCCTTCCTCCGCCCCTGGCTCGAA (ssDNA) [PL2trunc]: 10.1 nM; for B3: 50.1 nM.
